Assay: yeast display, Sf9 membrane polyspecificity reagent, FACS + sequencing; frameworks hold sequencing errors
Summary of the method: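 A nanobody's polyreactivity label depends on the gate it was sorted from. Yeast display cells were stained with 10% biotinylated, detergent-solubilized Sf9 membrane reagent for 1 hour at 4 °C, enriched on streptavidin microbeads and sorted by FACS. The low and high (top ~1%) gates were set on anti-HA fluorescence for expression and streptavidin fluorescence for reagent binding.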

| Sequence | polyreactivity (PSR sort gate) |
| --- | --- |
| QVQLVESGGGLVQAGGSLRLSCAASGSIFQINVMGWYRQAPGKERELVAASYADSVKGRFTISRDNAKNTVYLQMNSLKPEDTAVYYCARSNPAYSIYDYWGQGTQVTVSS | low polyreactivity |
| QVQLVESGGGLVQAGGSLRLSCAASGSIFQINVMGWYRQAPGKERELVAASYADSVKGRFTISRDNAKNTVYVQMNSLKPEDTAVYYCARTNPAYSIYDYWGQGTQVTVSS | low polyreactivity |
| QVQLVESGGGLVQAGGSLRLSCAASGSIFQKNAMGWYRQAPGKERELVATIRWSGGRTYYADSVKGRFTISRDNAKNTVYLQMNSLKPEDTAVYYCNAGYKGDYDYWGQGTQVTVSS | high polyreactivity |
| QVQLVESGGGLVQAGGSLRLSCAASGSIFQNYAMGWYRQAPGKERELVAAINDDSTYYADSVKGRFTISRDNAKNTVYLQMNSLKPEDTAVYYCNAEDYVTLKIDLSWPYGYWGQGTQVTVSS | low polyreactivity |
| QVQLVESGGGLVQAGGSLRLSCAASGSIFQRNAMGWYRQAPGKERELVAAISRSGGRTYYADSVKGRFTISRDNAKNTVYLQMNILKPEDTAVYYCAADSPYIQNRFEYWGQGTQVTVSS | high polyreactivity |
| QVQLVESGGGLVQAGGSLRLSCAASGSIFQRYAMGWYRQAPGKEREFVAAISGRGGSTYYADSVKGRFTISRDNAKNTVYLQMNSLKPEDTAVYYCAVRGRSYVRTYDYWGQGTQVTVSS | high polyreactivity |
| QVQLVESGGGLVQAGGSLRLSCAASGSIFQSNAMGWDRQAPGKERELVAAISSSGVRTYYADSVKGRFTISRDNAKNTVYLQMNSLKPEDTAVYYCATGWYYAGGPTYEYYYWGQGTQVTVSS | low polyreactivity |
| QVQLVESGGGLVQAGGSLRLSCAASGSIFQSNAMGWYRQPPGKERELVAAISSSGVRTYYADSVKGRFTISRDNAKNTVYLQMNSLKPEDTAVYFCATGWYYAGGPTYEYYYWGQGTQVTVSS | low polyreactivity |
| QVQLVESGGGLVQAGGSLRLSCAASGSIFQSYAMGWYRQAPGKERELVAAITERGGSTYYADSVKGRFTISRDTAKNTVYLQMNSLKPEDTAVYYCAADIYYWWCLSDLYTPTEGDYWGQGTQVTVSS | low polyreactivity |
| QVQLVESGGGLVQAGGSLRLSCAASGSIFQVYAMGWYRQAPGKERELVAAISGGGSSTYYADSVKGRFTISRDNAKNTVYLQMNSLKPEDTAVYYCAAAYSWYDNNRYDYWGQGTQVTVSS | low polyreactivity |
| QVQLVESGGGLVQAGGSLRLSCAASGSIFQVYSMGWYRQAPGKEREFVAAISFSGGGTYYADSVKGRFTISRDNAKNTVYLQMNSMKPEDTAVYYCAADVSGWEYDYWGQGTQVTVSS | low polyreactivity |
| QVQLVESGGGLVQAGGSLRLSCAASGSIFQYNTMGWYRQAPGKERELVAAINWSGVSTYYADSVKGRFTISRDNAKNTVYLQMNILKPEDTAVYYCNARRYVDGSYIYDRGYWGQGTQVTVSS | high polyreactivity |
| QVQLVESGGGLVQAGGSLRLSCAASGSIFQYNVKGWYIQAPGTERELVAAITSGGSTYYADSVKGRFTISRDNAKNTVYLQMNSLKPEDTAVYYCARDIRRKGFRYDYWGQGTQVTVSS | high polyreactivity |
| QVQLVESGGGLVQAGGSLRLSCAASGSIFQYYAMGWYRQAAGKERELVAAISGSGGRTYYADSVKGRFTISRDNAKNTVYLQMNSLKPEDTAVYYCNTVWWKQYNYWGQGTQVTVSS | high polyreactivity |
| QVQLVESGGGLVQAGGSLRLSCAASGSIFQYYGMGWYRQAPGKERELVASISRSGGSTYYADSVKGRFTISRDNAKNTVYLQMNSLKPEDTAVYYCNKRTYRQLSSWDYTYYYWGQGTQVTVSS | low polyreactivity |
| QVQLVESGGGLVQAGGSLRLSCAASGSIFQYYVMGWYRQAPGKERELDAAIRRSGTTYYADSVKGRFTISRDNAKNTVYLQMNSLKPEDTAVDYCNADSIYYYYLIEYEYWGQGSQVTVSS | low polyreactivity |

| Sequence | polyreactivity (PSR sort gate) |
| --- | --- |
| QVQLVESGGGLVQAGGSLRLSCAASGSIFRANAMGWYRQAPGKEREMVAAISYSGGSTYYADSVKGRFSISRDNAKNTVYLLMNSLKPEDTAVYYCAAEFLYASVYYSYWGQGTQVTVSS | high polyreactivity |
| QVQLVESGGGLVQAGGSLRLSCAASGSIFRAYAMGWYRQAPGKEGELVATITSGGRTNYADSVKGRFTISRDNAKNTVYLQMNSLKPEDTAVYYCNADHWLYYGAGYDYWGQGTQVTVSS | low polyreactivity |
| QVQLVESGGGLVQAGGSLRLSCAASGSIFRDNGMGWYRQAPGKERELVAAINSGDSTYYADSVKGRFTISRDNAKNTVYLQMNSLKPEDTAVYYCNADDRRALSQRQYDWYDYWGQGTQVTVSS | low polyreactivity |
| QVQLVESGGGLVQAGGSLRLSCAASGSIFRDYVMGWYRQAPGKERELVAAISGNDGSTYYADSVKGRFTISRDNAKNTVYLQMNSLKPEDTAVYYCNADEASTVPLFYSYLDFDYWGQGTQVTVSS | low polyreactivity |
| QVQLVESGGGLVQAGGSLRLSCAASGSIFREYAMGWYRQAPGKERELVAAITKSGGRTYYADSVKGRFTISRDNAKNTVYLQMNSLKPEDTAVYYCAADSRNSRQHTSYNRLNYWGQGTQVTVSS | high polyreactivity |
| QVQLVESGGGLVQAGGSLRLSCAASGSIFRFNAMGWYRQAAGKERELVAAISVRGSRTYYADSVKGRFTSSSDNAKNTVYLQMNSLKPEDTAVYYCNAEALTYSSRYDYWGQGTQVTVSS | low polyreactivity |
| QVQLVESGGGLVQAGGSLRLSCAASGSIFRFYTMGWYRQAPGKQRELVAAISASGGNTYYADSVKGRFTISRDNAKNTVYLQMNSLKPEDTAVYYCARVKFTKYDYWGQGTQVTVSS | high polyreactivity |
| QVQLVESGGGLVQAGGSLRLSCAASGSIFRFYVMGWYRPAPGKERELVAAISIGGSTNYADSVKGRFTISRDNAKNTVYLQMNSLKPEDTAVYYCAADYWYGAVLPHGTEFDYWGQGTQVTVSS | low polyreactivity |
| QVQLVESGGGLVQAGGSLRLSCAASGSIFRFYVMGWYRQAPGKERELVAAISIGGSTNYADSVKGRFTISRDNAKNTVFLQMNSLKPEDTAVYYCAADYWYGAGMPHGTEFDYWGQGTQVTVSS | low polyreactivity |
| QVQLVESGGGLVQAGGSLRLSCAASGSIFRGNAMGWYRQAPGKERELVAAITRSGGRTYYADSVKGRFTISRDNANNTVYLQMNCLKPEDTAVYFCAADYPYGSPTHFDYWGQGTQVTVSS | high polyreactivity |
| QVQLVESGGGLVQAGGSLRLSCAASGSIFRGNAMGWYRQAPGKERELVAAITRSGGRTYYADTVKGRFTISRDNAKNTVYLHMNSLKPEDTAVYYCAAEYYTRLGYWGQGTQVTVSS | high polyreactivity |
| QVQLVESGGGLVQAGGSLRLSCAASGSIFRGYAMGSYRQAPGKERELVATIDSSAGSTYYADSVKGRCTISRDNAKNTVYLQMNSLKPEDTAVYYCATDPYGYYYSGFDYWGQGTQVTVSS | low polyreactivity |
| QVQLVESGGGLVQAGGSLRLSCAASGSIFRGYAMGWYRQAPEKERELVAAISRRGGSTYYADSVKGRFTISRDNAKNTVYLQMNSLKPEDTAVYYCAKDGTGAGTYDYWGQGTQVTVSS | low polyreactivity |
| QVQLVESGGGLVQAGGSLRLSCAASGSIFRGYAMGWYRQAPGKERELVAAISWSGGSTYYADSVKGRFTISRDNAKNTVYLQMNSLKPEDTAVYYCAVEYVAYLYRMDYWGQGTQVTVSS | high polyreactivity |
| QVQLVESGGGLVQAGGSLRLSCAASGSIFRGYAMGWYRQAPGRERELVAAISRSGGSTYYADSVKGRFTISRDNAKNTVYLQMNSLKPEDTAVYYCAALLRGRYRMYYWGQGTQVTVSS | high polyreactivity |
| QVQLVESGGGLVQAGGSLRLSCAASGSIFRGYAMGWYRQAPGTERELVAAITSSAGSTYYADSVKGRFTISRDNAKNTVYLQMNSLKPEDSAVYYCNKYPRASRRGFDYWGQGTQVTVSS | high polyreactivity |

From the nanobody polyreactivity screen of Harvey et al. (2022)
